Experiment: soluble on expression in E. coli; label from the status in PepcDB or PDB records

| Sequence | soluble on expression in E. coli |
| --- | --- |
| MSAFFLNMEKSIITQKIIAKAFKDLMQSNAYHQISVSDIMQTAKIRRQTFYNYFQNQEELLSWIFENDFAELINDNSDYYGWQNELLLLLRYLDENQIFYQKIFVIDKNFEHFFLIQWENLLDKVIFDQEKKSDYHWSDLEKSFICRYNAAAICAITRESIIRGNSLEKLYSQIVNLLLAQIKIFESLEHHHHHH | soluble |
| MSAFPVHAAFEKDFLVQLVVVDLNDSMDQVAEKVAYHCVNRRVAPREGVMRVRKHRSTELFPRDMTIAESGLNPTEVIDVVFEE | soluble |
| MSAFYQIFHDTHYKYDTPVSLAQQLAHLWPRSSPWQRCTEQALEIFPAPTTRRDELDVFGNPLTRLAFERPHDELQVNARLRIEVLERPQLDFNLSPEWEVTRNALTYSAKPMTEDILEACRYRFESPYVHLKRSFVEFSQDCFPVGRPLLLGVQALMEKIFDEFTFDEEATQVATPLVEVLESRRGVCQDFAHLMLACLRSRGLAARYVSGYLLTQPPPGQPRLIGADASHAWVSVFCPASGWVDFDPTNNVQPALEHISLAWGRDFSDVSPLRGVILGGGSHDPDVRVTVMPVSA | not soluble |
| MSAIPAEESDQLLIRPLGAGQEVGRSCIILEFKGRKIMLDCGIHPGLEGMDALPYIDLIDPAEIDLLLISHFHLDHCGALPWFLQKTSFKGRTFMTHATKAIYRWLLSDYVKVSNISADDMLYTETDLEESMDKIETINFHEVKEVAGIKFWCYHAGHVLGAAMFMIEIAGVKLLYTGDFSRQEDRHLMAAEIPNIKPDILIIESTYGTHIHEKREEREARFCNTVHDIVNRGGRGLIPVFALGRAQELLLILDEYWQNHPELHDIPIYYASSLAKKCMAVYQTYVNAMNDKIRKQININNPFVFKHISNLKSMDHFDDIGPSVVMASPGMMQSGLSRELFESWCTDKRNGVIIAGYCVEGTLAKHIMSEPEEITTMSGQKLPLKMSVDYISFSAHTDYQQTSEFIRALKPPHVILVHGEQNEMARLKAALIREYEDNDEVHIEVHNPRNTEAVTLNFR | soluble |
| MSALTPPTDMPTPTTDKITQAAMETIYLCKFRVSMDGEWLCLRELDDISLTPDPEPTHEDSWEDLTDLVEQVRADPEDPNYLMANERMNLMNMAKLSIKGLIESALNLGRTLDSDYAPLQQFFVVMEHCLKHGLKAKKTFLGQNKSFWGPLELVEKLVPEAAEITASVKDLPGLKTPVGRGRAWLRLALMQKKLSEYMKALINKKELLSEFYEVNALMMEEEGAIIAGLLVGLNVIDANFCMKGEDLDSQVGVIDFSMYLKDGNSSKGSEGDGQITAILDQKNYVEELNRHLNATVNNLQTKVDLLEKSNTKLTEELAVANNRIITLQEEMERVKEESSYLLESNRKGPKKTELQKGKR | soluble |
| MSAMKKLVVLGGGYGGMRILQRLLPNDLPSDWEITLVDRLPYHCLKTEYYALAAGTASDHHLRVSFPEDPRLSTRYGSVSSIDLASKTVLFEEGEPLTYDTLIIGLGCEDKYHGVPGAKEHTYSIQSMEATRRTYEALNNVRPEGVVTIVGAGLSGVELASELRESRPDLTIKLLDRGDIILSMFPRRLSNYVQNWFIDHGVDIINKSNVTKVEEGAVYNHDERIESDAIIWTAGLEHHHHHH | soluble |
| MSASETRSKVLTDESTGSTAIEESPRNRQNEEPEQTSQTENLQTDPFNARISEIFEKQTVAFERQMMIKEEEFMSQMKEREEVKLKDLETKLENFEKWRKEIRLEGAKELNIKLHSEPEVSAELEHEGGLQEK | not soluble |
| MSATRHRSDGHEEIVALDALPLSAAIRRRELSCREVMQAYLAQIERFNPRVNAIVSLQAESRLLTQADERDRQLARGEWLGWMHGMPQAIKDLAATSGIPTTLGSPLFAGQVPEHDAIVVERVKSSGAIVIGKTNVPEFGLGSQTYNPLFGTTRNAYDPARIAGGSSGGAAVALALRMLPVADGSDMMGSLRNPAAYNNVYGFRPSQGRVPHGPQAELFVQQLATEGPMGRSVADLARLLATQAGYDPRCPLSLRDDPRRFADDLGRDFRGARLGWLGDYAGYLPMEEGVLELCEAALGDFAELGCDVEACLPDYPLERLWRTWLVHRQWLVQGSLGELYADPARRVRLKPEAQWEVESGLGLGAAEVYRASLDRSDWYRALARLFERYDFLLLPSAQVFPFDAETAWPRQVAGRPMDTYHRWMEVVIGPTLAGLPAISVPIGFGAAGLPMGLQIIGPAQADLAVLQLAHAHEGLTRWVSRRPPAMLEAPGGI | not soluble |
| MSATTTNLKEAIVNRRSIRKVTKNDAITKERIEEVLKTALHAPTSFNMQSGRMVVLMDGEHEKFWDIVKETLRARVPAENFEATVERLKGFHAGVGTVLFFEDQATVEKMQENAPLYKDQFPFWSHQGNAMLQHTVWMLLSAEGIGASLQHYNPIVDAEVKETWNIPAEWSLVGQMPFGEPNEQPAERTFLPTEDVVKFY | soluble |
| MSDAMPLDQTLEQLTQDEWIDIPQGWSQGRTIYGGLVAGLLMHKALSVMNDESKNLLSTSITFVGPVNEGRVRLTVEILRQGKSVTTIEARLWQDQAVQTILIASFGQPRSLEHHHHHH | not soluble |
| MSDAQGNTLTEEELAMLRAGDEENDNTDTIMVIRVPNDGSSATAVSIPRDTYIHDDDYGNMKINGVYGAYKDARRAELMEQGFTNESELETRAKDAGREGLIDAVSDLTGITVDHYAEVGLLGFVLLTDAVGGVEVCLNNAVDEPLSGANFPAGRQTLGGSDALSYVRQRHDLPRGDLDRIVRQQSYMASLVNQVLSSGTLTNPAKLSALADAVTRSVVIDEGWEIMSFATQLQNLAGGNVTFATIPVTSIDGTGDYGESVVTIDVNQVHAFFQEALGEAEPAPEDGSDDQSADQAPDLSEVEVHVLNASYVEGLANGIAAQLQELGYSIAETGNAAEGLYYESQILAAEEDSAKALAISEALGGLPIVANSSLDDNTVIVVSAGDYAGPTAEANALEHHHHHH | soluble |
| MSDEAWKQTLICESINDKIGYWEYLAVTDKRRRSRNKAQSSGAENYKKVLEEQQRIYTAGGMGYGPEMYQVISNPMRNQKRVNNIEGSKIFAAMNSGAPRIALDIQYVEEMNKRDSGELGNQMQYTISENFSAKSPFVLDFVNSPSKEFLEQWLSKSVGYYTGNYINQTILPDFSTKGIKEFYGKSANTIYISSNARDVLDGPLTADVIGICVTMGRKREALSAARRANIRAYRLPIHRYVKWKSGPQYLPFPNIMNVLREVYMNGGDWSRALHNNISKRHLVNADDDEQKKMQMLRRRAREEERRELTEAIMSATKG | not soluble |
| MSDEKKGGETEHINLKVLGQDNAVVQFKIKKHTPLRKLMNAYCDRAGLSMQVVRFRFDGQPINENDTPTSLEMEEGDTIEVYQQQTGG | soluble |
| MSDITISRPEVVNGHTDVICSTSIRHILAVRKSTLLQIDTLIRQLAEISVLTESIGGKTAPDWAMKQDFRCGCWLMEKPETAMKAITRNLDREIWRDLMQRSGMLSLMDTQARDTWYRSLEYDNFPEISEANILSTFEQLHQNKDEVFERGVINVFRGLNWNYKTNCPCKFGSKIIVNNLVRWDRWGFHLITGQQADRLADLERMLHLFSGKPIPDNRGNITLRLDDHIQSVQGKESYEDEMFSIRYFKKGSAHITFRKPELVDRLNDIIAKHYPDMLAV | soluble |
| MSDITTKSTKQTESLVCGEFKALGPAPYYVGDEIIVMRCAETINEIFSDWTKRANLDENKYTPFDVNAPIELPRRTDMLKSYNLDPPINETGKIASKMIARELCDRHAIPSVIFCSPDFASVETAHLIKSYIGEKCGAIRIEPELSTLHKSAHVFFGPNHFTSLGYGIDEKNPLHAVSDGVSLSDLVNRIKRAFYELTSKVDNALIIVDSLSMMIISSLFHNVYIRNDSSVDLERLRSLASFPSLSNFTAYRVGGQTGVKTYDLTSTCLRPLTFTGFSNEIDLE | not soluble |
| MSDKHINLVIVTGMSGAGKTVAIQSFEDLGYFTIDNMPPALVPKFLELIEQTNENRRVALVVDMRSRLFFKEINSTLDSIESNPSIDFRILFLDATDGELVSRYKETRRSHPLAADGRVLDGIRLERELLSPLKSMSQHVVDTTKLTPRQLRKTISDQFSEGSNQASFRIEVMSFGFKYGLPLDADLVFDVRFLPNPYYQVELREKTGLDEDVFNYVMSHPESEVFYKHLLNLIVPILPAYQKEGKSVLTVAIGCTGGQHRSVAFAHCLAESLATDWSVNESHRDQNRRKETVNRS | not soluble |
| MSDLLDTVRGLAKKTDSKILMVVLDGVGGLPLTVNGDTELATARTPNLDALAQESQLGQLELVGAGITPGSGPGHLSLFGYDPLKYVVGRGALSAVGIGVKLNRGDVAVRGNFATLGAGRLILDRRAGRPSDEKNAEIVAKLRAAIPEIDGVAVEVYTESEHRFVVVFRAPEGQPLGANISDVDPQVTGVEPKTAIANDPSSEVTAGLINTFVARAEVALADEPQVNGVLFRGYSDVPHFPSFEDAYQLKAACIASYPMYKGLASLVGMDVLPVEGHEDALEGKVKALRENWAKYDFFYFHIKKTDSTGEDGDFAEKVHKIELFDELLPQLLELQPDVIAVVGDHSTPSKLKSHSWHPVPLLIRSNYGRRDPAQRYTEEEAARGTLGLRHGPDLMPLLMANALKLNKYGALEHHHHHH | soluble |
| MSDSASNTENSIQIEIFPSRILSPETAQKLLVELSQVDGILRVMIQGNRLPEKVGYGPGTGEKVEHPLRKPIQIGGQVIELRVSVGRIRLEVLNAEVKENVRAVCEKMLPFSFEFREGHFLRRKPTVTDYAKLGPEADPRLLGMVDPKAKINQLVFILEHHHHHH | not soluble |
| MSDTQQVPAIVILGQGALDTARRVQARYPGALVHGLAGRVEADRSYTDFGDTLRELYCADRPIVALCAAGIVIRSLAPLLQRKGAEPPVLALAEDGSAVVPLLGGLAGVNRLAREIGEVLAVAPAITTSGELRFGTCVLNPPAGYVLADLEQGKRFVADLLGGQPVRVEGAADWLDAARLPRDPEAALAIHVTPSARAPRAEELLIHPRCVLAALEPADAAADAVRQALVDAGLAAAALGGLLADSARMADPRLQAAADALGVPLRFLPQADPAARLRQALPAAEQVGDRLAVAAAPLAMDRIGQRRGRLTVIGLGPGCAELMVPAARRALDEAEDILGYQTYVDMAGPFRAGQVLHGSDNREELQRARHAFELAATGRAVVLVSSGDPGVFAMAAAVLEALHGAGEPAWDAVELRIFPGVSAALATAARAGAPLGHDFCVLSLSDNLKPWEVIERRLDLAGAADLAMAFYNPISRARPWQLGRALEIVARHRSPQTLVVLGRDIGRPGERLLRTTLGELRAEQVDMRTLVIIGSSTTRSFPRADGEAWVYTPRWYPSE | not soluble |
| MSDVAVAETPAVKTPTKASKATKAKATKIPKVKVVAAHPPFINMITEAVSNLKDRKGSSRVAIFKFITAKYTLGDQVNKTNAHLRSALKKGVVSKVLVQTNGIGANGRFRLAVAEKPPAVKKAATGEQKVMKTVAKKAVSGDKAKKTVAKKTGDKVKKVKSPKRIAKPAVKKVTKKAAAPTKSAANETAPKKAAATEAAPKKAAVTKAATKKTPARKAVGTAPKA | soluble |
| MSDYLSVSSLTKYLKLKFDRDPYLERVYLTGQVSNFRRRPNHQYFSLKDEKAVIQATMWSGIYRKLGFELEEGMKINVIGRVQLYEPSGSYSIIIEKAEPDGIGALAVQFEQLKKKLAEAGYFDDRHKQRLSQFVKKIGVVTSPSGAVIRDIITTVSRRFPGVDILLFPTKVQGEGAAQEVADNIRLANERTDLDLLIVGRGGGSIEDLWAFNEEIVVQAIFESHLPIISSVGHETDTTLADFAADRRAATPTAAAELATPVTKADLLAFLKERQMRSYQAVMRLIRQKDEQVKKLQRSVIFRQPERLYDAYVQKLDHLRTHLLTKVRQVYDVYDSKEHLLRQRLLSFNLSGCIQRYQAQLKQDQRLLLSHMSSQYDSKLARFEKAQDALLSLDTTRIVARGYAIVQKDNHIIQSTQQIKKGDRLHLEMKDGQVQVEVENVKQEENI | not soluble |

Reference: the DeepSol protein solubility set
